Usually EC50 stands for the concentration giving half of the maximal effect.

Substitutions are numbered along the chain they refer to.

We go through seven molecules from patent US20230272086A1 (CHIA TAI TIANQING PHARMACEUTICAL GROUP, published 2023).

B1: Chimeric 31C8 (antibody, human IgG2, kappa, V domains shown)
VH: QVQLQQSGPELVRPGASVTLSCKASGYIFIDSEMHWVKQTPVHGLEWIGAIDPETGDTVYNQKFKGKATLTADKSSSTASMELSSLTSEDSAVYYCTGSTTDYYFAYWGQGTTLTVSS
VL: DIVMTQAAFSNPVTLGTSASISCRSSKSLLHSNGIIYLYWYLQKPGQSPQLLIYQMSNLASGVPDRFSSSGSGTDFTLRISRVEAEDVGVYYCAQNLELPFTFGSGTKLEIKR
notes: also called xi31C8
B2: RG6149 (antibody Ab2 in CN104334582, prepared in-house) (antibody, human IgG2, kappa, V domains shown)
VH: EVQLVQSGAEVKKPGESLKISCKGSGYSFTNYWIGWVRQMPGKGLEWMGIIYPGNSDTRFSPSFQGQVTISADKSITTAYLQWSSLKASDTAMYYCARHGTSSDYYGLDVWGQGTTVTVSS
VL: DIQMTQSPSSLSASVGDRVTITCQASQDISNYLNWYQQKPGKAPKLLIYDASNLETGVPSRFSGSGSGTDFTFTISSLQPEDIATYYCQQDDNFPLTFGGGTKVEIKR
notes: Control anti-ST2 antibody
B3: Chimeric 7D1 (antibody, human IgG2, kappa, V domains shown)
VH: QVQLQQSGAELVRPGASVTLSCKASGYTFTDYEMHWVKQTPVHGLDWIGTIDPETGDTAYNQKFKGRATLTADKSSSTAYMELSSLTSEDSAVYYCTRYSYTNSPYGMDYWGQGTSVTVSS
VL: DVVMTQTPKFLLVSAGDRVTITCKASQSVSNDVAWYQQKPGQSPKLLIYYASNRYTGVPDRFTGSGYGTDFTFTINTVQAEDLAVYFCQQDYSSPYTFGGGTKLEIKR
notes: also called xi7D1
B4: Chimeric 17E2 (antibody, human IgG2, kappa, V domains shown)
VH: QVQLQQSGAELVRPGASVTLSCKASGYTFTDYEMHWVKQTPVLGLEWIGAIDPETGDTAYNQKFKGKATLTADKSSSTAYMELSSLASEDSAVYYCIRVDSNYDYFDYWGQDTTLTVSS
VL: DIVLTQSPPILSASPGEKVTMTCRASSSVSYMHWYQQKPGSSPKPWIYDTSNLASGVPARFSGSGSGTSYSLTISRVEAEDAATYYCQQWSSNPLTFGAGTKLELKR
notes: also called xi17E2
B5: GSK3772847 (antibody STLM208 in CN104411333, prepared in-house) (antibody, human IgG2, kappa, V domains shown)
VH: EVQLLESGGGLVQPGGSLRLSCAASGFTFSIYDMIWVRQAPGKGLEWVSSIRGEGGGTYYADSVKGRFTISRDNSKNTLYLQMNSLRAEDTAVYYCARDPWSTEGSFFVLDYWGQGTLVTVSS
VL: EIVLTQSPATLSLSPGERATLSCRASQSVDDDLAWYQQKPGQAPRLLIYDASNRATGIPARFSGSGSGTDFTLTISSLEPEDFAVYYCQQYITAPLTFGQGTKVEIKR
notes: Control anti-ST2 antibody
B6: Humanized 31C8-1.1 (antibody, human IgG2, kappa, V domains shown)
VH: EVQLVQSGAEVKKPGATVKISCKASGYIFIDSEMHWVQQAPGKGLEWMGAIDPETGDTVYAEKFQGRVTITADKSSSTAYMELSSLRSEDTAVYYCTGSTTDYYFAYWGQGTLVTVSS
VL: DIQMTQSPSSLSASVGDRVTITCRSSKSLLHSNGIIYLYWYQQKPGKAPKLLIYQLSNLASGVPSRFSSSGSGTDFTLTISSLQPEDFATYYCAQNLELPFTFGQGTKVEIKR
notes: also called hz31C8-1.1; hz31C81-1.1
B7: Humanized 31C8-1.2 (antibody, human IgG2, kappa, V domains shown)
VH: B6 VH with E1Q, E10K, E62K, Q65K
VL: B6 VL
notes: also called hz31C8-1.2; hz31C81-1.2

The target in one assay is T1, human ST2 (hST2, Interleukin-1 receptor-like 1 isoform A) on cells (human, UniProt Q01638 19-556).
T1 sequence: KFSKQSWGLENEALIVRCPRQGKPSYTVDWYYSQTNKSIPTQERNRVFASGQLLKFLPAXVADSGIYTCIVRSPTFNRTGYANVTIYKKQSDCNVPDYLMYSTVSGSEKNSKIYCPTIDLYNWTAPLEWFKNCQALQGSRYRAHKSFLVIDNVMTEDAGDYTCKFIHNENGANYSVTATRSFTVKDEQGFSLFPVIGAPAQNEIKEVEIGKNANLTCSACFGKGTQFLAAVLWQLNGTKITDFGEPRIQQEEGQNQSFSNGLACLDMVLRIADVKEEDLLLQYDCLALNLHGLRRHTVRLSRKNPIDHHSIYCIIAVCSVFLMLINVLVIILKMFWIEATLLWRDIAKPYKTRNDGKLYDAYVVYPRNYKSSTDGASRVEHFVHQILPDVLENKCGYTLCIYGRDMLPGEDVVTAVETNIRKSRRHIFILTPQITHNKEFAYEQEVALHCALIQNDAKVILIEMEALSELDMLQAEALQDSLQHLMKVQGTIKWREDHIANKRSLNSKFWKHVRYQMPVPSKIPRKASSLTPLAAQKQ
The assay is described as follows: cell-based or functional assay.
Regarding B1, the “IC50, blocking of the IL33/ST2-induced IL5 secretion on CD4+ T cells (hIL33 plus IL2 co-stimulation)” value (from here on “IC50, blocking … (hIL33 plus IL2 co-stimulation)”) stood at 0.09 nM.
In the case of B2, the “IC50, blocking … (hIL33 plus IL2 co-stimulation)” value worked out at 0.32 nM.
As to B3, the “IC50, blocking … (hIL33 plus IL2 co-stimulation)” value stood at 0.12 nM.
B4: the “IC50, blocking … (hIL33 plus IL2 co-stimulation)” value is 0.08 nM.

For the next assay, the target named is T1, human ST2 (hST2, Interleukin-1 …). The assay is described as follows: cell-based or functional assay. The source holds these as a separate data set.
As for B5, the “IC50, blocking of the IL33/ST2 signaling (NFκB luciferase reporter, HEK293T-hST2-NFκB-Luciferase cells)” value is 29.2 nM and the “IC50, blocking of the IL33/ST2 signaling (NFκB luciferase reporter, KU812-NFκB-Luciferase cells naturally expressing hST2, 200 pM hIL33)” value came out at 0.111 nM.
On to B1, for which the “IC50, blocking of the IL33/ST2 signaling (NFκB luciferase reporter, HEK293T-hST2-NFκB-Luciferase cells)” value came out at 15.6 nM and the “IC50, blocking of the IL33/ST2 signaling (NFκB luciferase reporter, KU812-NFκB-Luciferase cells naturally expressing hST2, 200 pM hIL33)” value was 0.016 nM.
For the molecule B2, the “IC50, blocking of the IL33/ST2 signaling (NFκB luciferase reporter, HEK293T-hST2-NFκB-Luciferase cells)” value was 84.3 nM and the “IC50, blocking of the IL33/ST2 signaling (NFκB luciferase reporter, KU812-NFκB-Luciferase cells naturally expressing hST2, 200 pM hIL33)” value turned out to be 0.047 nM.
Taken in the same sequence, the figures for B6 were 15.9 nM and 0.008 nM.
Taken in the same sequence, the figures for B7 were 20.4 nM and 0.006 nM.

The target of the next assay is T2, recombinant protein containing hST2 extracellular domain with mouse antibody heavy chain Fc tag (hST2-ECD-mFc) (human).
T2 construct: Used for SPR and for ELISA of chimeric and humanized antibodies; also called human ST2 antigen
T2 chain: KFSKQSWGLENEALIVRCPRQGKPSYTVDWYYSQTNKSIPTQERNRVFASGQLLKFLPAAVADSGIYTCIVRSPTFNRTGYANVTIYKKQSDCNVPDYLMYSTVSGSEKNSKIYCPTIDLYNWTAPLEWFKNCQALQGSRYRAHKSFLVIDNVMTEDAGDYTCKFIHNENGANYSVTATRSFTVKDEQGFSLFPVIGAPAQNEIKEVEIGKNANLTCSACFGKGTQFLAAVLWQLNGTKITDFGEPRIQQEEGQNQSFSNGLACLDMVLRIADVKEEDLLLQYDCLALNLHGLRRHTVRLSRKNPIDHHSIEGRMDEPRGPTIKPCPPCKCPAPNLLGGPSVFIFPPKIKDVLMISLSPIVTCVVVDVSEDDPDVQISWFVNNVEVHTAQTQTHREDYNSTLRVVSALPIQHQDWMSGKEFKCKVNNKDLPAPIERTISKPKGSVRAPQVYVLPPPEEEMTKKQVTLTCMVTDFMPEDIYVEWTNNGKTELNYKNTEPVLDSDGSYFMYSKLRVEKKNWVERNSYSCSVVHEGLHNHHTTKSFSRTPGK
The assay is described as follows: ELISA, plate coated with hST2-ECD-mFc, antibody not heated. On the procedure:
The anti-ST2 antibodies were diluted with PBS buffer to a concentration of 1.5 mg/mL. […], the samples were assayed by ELISA for their binding activity for an antigen The ELISA procedure is as follows: A 96-well plate was coated with 2 µg/mL hST2-ECD-mFc as the antigen at 100 µL/well and incubated at 4° C. overnight. After the antigen not adsorbed was well washed off, the non-specific binding sites were blocked with a blocking buffer (PBST containing 1% bovine serum albumin). After the plate was washed three times with a washing buffer (PBST, PBS containing 0.05% (v/v) Tween 20), the anti-ST2 antibodies (serially diluted 3-fold from an initial concentration of 1.5 µg/mL to 8 concentrations) were added at 100 µL/well, and the plate was incubated at 37° C. for 1 h. […] After the plate was incubated at room temperature for 5 min, a stop solution (2 N H₂SO₄) was added to stop the reactions. The signals were read at 450 nm using a plate reader (PE, Envision). The data were analyzed using GraphPad Prism5, and the EC₅₀ values were calculated.
In the case of B5, the EC50 was found to be 0.109 nM.
The same measure, in the same setting: for B1 the value was 0.0744 nM.
The same measure, in the same setting: for B2 the value was 0.143 nM; for B6, 0.0906 nM.
Turning to B7, the EC50 worked out at 0.092 nM.

The target of another assay is T2, recombinant protein containing hST2 …. Kind of assay: ELISA, plate coated with hST2-ECD-mFc, antibody heated at 72 °C for 5 min; antibody heated at 72° C. for 5 min (Heated column, not the unheated 0.1428 nM). As for the experimental part: The anti-ST2 antibodies were diluted with PBS buffer to a concentration of 1.5 mg/mL. After being treated at 72° C. for 5 min, the samples were assayed by ELISA for their binding activity for an antigen The ELISA procedure is as follows: A 96-well plate was coated with 2 µg/mL hST2-ECD-mFc as the antigen at 100 µL/well and incubated at 4° C. overnight. After the antigen not adsorbed was well washed off, the non-specific binding sites were blocked with a blocking buffer (PBST containing 1% bovine serum albumin). After the plate was washed three times with a washing buffer (PBST, PBS containing 0.05% (v/v) Tween 20), the anti-ST2 antibodies (serially diluted 3-fold from an initial concentration of 1.5 µg/mL to 8 concentrations) were added at 100 µL/well, and the plate was incubated at 37° C. for 1 h. […] After the plate was incubated at room temperature for 5 min, a stop solution (2 N H₂SO₄) was added to stop the reactions. The signals were read at 450 nm using a plate reader (PE, Envision). The data were analyzed using GraphPad Prism5, and the EC₅₀ values were calculated.
Background: An ELISA detects its analyte on a solid surface through an enzyme-linked reagent.
Regarding B2, the EC50 was determined as 1.06 nM.
